Source: paper PMC5646979 (Molecular Medicine Reports, 2017)

Molecular target: T1, Glu225Ala mutant RANKL (UniProt O35235 139-316, Glu225Ala)
T1 sequence (looked up): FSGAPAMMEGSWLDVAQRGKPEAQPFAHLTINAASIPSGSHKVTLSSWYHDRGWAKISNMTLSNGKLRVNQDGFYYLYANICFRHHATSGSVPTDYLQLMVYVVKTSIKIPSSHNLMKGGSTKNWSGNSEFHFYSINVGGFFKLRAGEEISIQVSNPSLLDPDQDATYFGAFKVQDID
Test: SPR

B1: Recombinant soluble RANK (receptor activator of nuclear factor κ-B) (receptor, murine, UniProt O35305 31-214, looked up)
chain: VTPPCTQERHYEHLGRCCSRCEPGKYLSSKCTPTSDSVCLPCGPDEYLDTWNEEDKCLLHKVCDAGKALVAVDPGNHTAPRRCACTAGYHWNSDCECCRRNTECAPGFGAQHPLQLNKDTVCTPCLLGFFSDVFSSTDKCKPWTNCTLLGKLEAHQGTTESDVVCSSSMTLRRPPKEAQAYLPS
fold decrease of binding affinity against wild-type RANKL: 100 fold
